Results published in US20060193771A1.

Columns and labels:
[1] = biological target: human CD30, native, expressed on cells (human); assay: cell-based or functional assay
[2] = biological target: T1, recombinant soluble CD30 (sCD30) produced in E. coli (human); assay: SPR (BIAcore), sCD30 immobilized
T1 sequence: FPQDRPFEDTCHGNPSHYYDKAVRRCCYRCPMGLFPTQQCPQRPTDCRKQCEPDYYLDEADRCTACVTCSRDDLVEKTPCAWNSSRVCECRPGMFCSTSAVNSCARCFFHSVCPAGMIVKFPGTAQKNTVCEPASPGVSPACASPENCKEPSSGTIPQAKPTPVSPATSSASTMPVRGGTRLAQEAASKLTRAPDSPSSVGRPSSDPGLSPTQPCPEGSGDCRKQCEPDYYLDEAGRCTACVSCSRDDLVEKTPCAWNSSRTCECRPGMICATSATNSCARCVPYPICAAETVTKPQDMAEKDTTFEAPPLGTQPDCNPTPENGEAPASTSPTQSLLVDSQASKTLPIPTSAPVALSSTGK

[3] = biological target: T1, recombinant soluble CD30 (sCD30) produced in E. coli (human); assay: indirect ELISA, sCD30 coated
CD30-Fc (human) = biological target: T2, CD30-Fc (human); assay: affinity of the MAb; ELISA using CD30-Fc
T2 sequence: T1 sequence

[4] = biological target: human CD30, native, expressed on cells (human); assay: FACS, L428 cells, MAb 5 µg/ml; HeFi-I is the control itself
[5] = biological target: human CD30, native, expressed on cells (human); assay: FACS, L540 cells, MAb 5 µg/ml; HeFi-I is the control itself
[6] = biological target: T1, recombinant soluble CD30 (sCD30) produced in E. coli (human); assay: SPR (BIAcore), sCD30 immobilized; not corrected for bivalency
[7] = biological target: human CD30, native, expressed on cells (human); assay: competitive FACS on L540 cells, unlabeled MAb 2.5 µg/ml; competitor: biotin-T6
[8] = biological target: human CD30, native, expressed on cells (human); assay: competitive FACS on L540 cells, unlabeled MAb 2.5 µg/ml; competitor: biotin-T14
[9] = biological target: human CD30, native, expressed on cells (human); assay: competitive FACS on L540 cells, unlabeled MAb 2.5 µg/ml; competitor: biotin-T24
[10] = biological target: human CD30, native, expressed on cells (human); assay: competitive FACS on L540 cells, unlabeled MAb 2.5 µg/ml; competitor: biotin-T25
[11] = biological target: human CD30, native, expressed on cells (human); assay: competitive FACS on L540 cells, unlabeled MAb 2.5 µg/ml; competitor: biotin-HRS-4
[12] = biological target: human CD30, native, expressed on cells (human); assay: competitive FACS on L540 cells, unlabeled MAb 2.5 µg/ml; competitor: biotin-HeFi-I

B1: CL2(scFv)-PE38 (scFv, V domains shown)
VH: EVQLKQSGTELVKPGASVKLSCKASGYTFTSYWMHWVKQRPGQGLEWIGNINPSNGGTNYNEKFKSKATLTIDKSSSTAYMQLSSLTSEDSAVYYCARRTETAQASPFAYWGQGTLVTVSS
VL: DIVMTQSHKFMSTSVGDRVSVTCKASQNVGTNVAWYQQKPGQSPKALIYSASTRYSGVPDRFTGSGSGTDFTLTISNVQSEDLAEYFCQQYNSYPFTFGSGTKLEIK
- IC50, cytotoxicity on A431 cells stably transfected with CD30 [1]: 2.5 ng/mL
- Kd [2]: 56 nM
- koff [2]: 0.0022 s⁻¹
- kon [2]: 38000 M⁻¹ s⁻¹

B2: HeFi-I MAb (antibody, V domains shown)
VH: EVKLVESGGGLVQPGGSLRLSCATSGFTFSDYYMNWVRQPPGKALEWLGFIRNKANGYTTEFSASVMGRFTISRDDSQSILYLQMNTLRAEDSATYYCARDPPYGNPHYYAMDYWGQGTSVTVSS
VL: DIVLTQSPASLAVSLGQRATISCRASKSVSASGYNYMHWYQQKAGQPPKLLIHLASNLESGVPARFSGSGSGTDFTLNIHPVEEEDASTYYCQHSGELPFTFGSGTKLEIK
- titer in ELISA [3]: 105 mL/µg
- Kd (CD30-Fc (human)): 2.4 nM
- relative reactivity in FACS (% of control) [4]: 100 % of control
- relative reactivity in FACS (% of control) [5]: 100 % of control
- Kd [6]: 7.8 nM
- koff [6]: 0.00054 s⁻¹
- kon [6]: 72000 M⁻¹ s⁻¹
- inhibition of the binding of biotin-MAb (%) [7]: 0%
- inhibition of the binding of biotin-MAb (%) [8]: 0%
- inhibition of the binding of biotin-MAb (%) [9]: 33.4%
- inhibition of the binding of biotin-MAb (%) [10]: 8.4%
- inhibition of the binding of biotin-MAb (%) [11]: 0%
- inhibition of the binding of biotin-MAb (%) [12]: 98%

B3: T7 MAb (antibody, V domains shown)
VH: QVQLQQSGAELVRPGSSVKISCKASGYTFSSYWMNWMKQRPGQGLEWIGQIYPGDDDTNYNGKFKGKATLTADKSSSTAYMQLSSLTSEDSAVYFCARRETGRGAWFTYWGQGTLVTVSA
VL: DIVLTQSPASLAVSLGQRATISCRASESLEYYGTTLMQWYQQKPGQPPKLLIYAASNVESGVPARFSGSGSGTDFSLNIHPVEEDDIAMYFCHQSRKVPSTFGGGTKLEIK
- Kd (CD30-Fc (human)): 3.5 nM
